Measurements as given in patent publication US20150203579A1 (Regeneron, published 2015).

T1: monkey PD-1 with mFc (monkey)
T1 construct: also called monkey PD-1-mFc; monkey PD-1 dimer
T1 chain: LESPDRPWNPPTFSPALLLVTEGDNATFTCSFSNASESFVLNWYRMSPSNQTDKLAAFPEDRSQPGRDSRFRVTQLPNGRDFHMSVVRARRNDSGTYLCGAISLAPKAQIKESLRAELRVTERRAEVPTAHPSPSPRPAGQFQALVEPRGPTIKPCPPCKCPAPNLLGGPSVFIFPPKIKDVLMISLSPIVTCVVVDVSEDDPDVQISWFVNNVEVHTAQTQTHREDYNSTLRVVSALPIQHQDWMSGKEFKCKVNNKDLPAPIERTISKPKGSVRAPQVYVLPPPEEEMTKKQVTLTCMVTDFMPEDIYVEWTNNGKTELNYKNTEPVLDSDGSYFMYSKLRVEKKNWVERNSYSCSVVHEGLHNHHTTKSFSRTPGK

B1: H1M7799N (antibody, V domains shown)
VH: EVQLVESGGGLVQPGGSLRLSCAASGFTVSNNYMSWVRQAPGKGLEWVSVIYSGGFTYYTDSVKGRFTISRHNSKNTLYLQMNSLRAEDTAVYYCARYYYDTSDYWTFFDYWGQGTLVTVSS
VL: EIVMTQSPATLSVSPGERATLSCRASQSVSSNLAWYQQKPGQAPRLLIYGASTRATGIPARFSGSGSGTEFTLTISSLQSGDFAVYYCQQYNNWPLTFGGGTKVEIN
notes: human variable regions, mouse IgG1 Fc
B2: H1M7800N (antibody, V domains shown)
VH: EVQLVESGGGLVQPGGSLRLSCAASGFTVSNNYMSWVRQAPGKGLEWVSVIYSGGFTYYTDSVKGRFTISRHNSKNTLYLQMNSLRAEDTAVYYCARYYYDTSDYWTFFDYWGQGTLVTVSS
VL: EIVMTQSPATLSVSPGERATLSCRASQSVSSNLAWYQQKPGQAPRLLIYGASTRATGIPARFSGSGSGTEFTLTISSLQSGDFAVYYCQQYNNWPLTFGGGTKVEIN
notes: as for B1
B3: H4xH9034P (antibody, V domains shown)
VH: EVQLVESGGGVVRPGGSLRLSCTASGFTFDDYGMSWVRQAPGKGLEWISGIGWTGGRSSYADSVRGRFTISRDNAKNSLYLQMNSLGAEDTALYYCARDRQWLVQWYFDYWGQGTLVTVSS
VL: not shown
notes: human IgG4 Fc with 2 or more amino acid changes (US20100331527); also called H4xH9034P2
B4: H2aM7788N (antibody, V domains shown)
VH: EVQLVESGGGLVQPGGSLRLSCGASGFTFRNYDMHWVRQITGKGLEWVSAIGSAGDTYYPDSVKGRFTISRENAKNSLYLQMNSLRVGDTAVYYCTRDIHCSSTRCYGMDVWGQGTTVTVSS
VL: not shown
notes: human variable regions, mouse IgG2a Fc; also called H2M7788N
B5: H4xH9037P (antibody, V domains shown)
VH: EVQLVESGGGLVQPGGSLRLSCAASGFTFDDYAMHWVRQAPGKGLEWVSGIGWSSGSIGYADSVKGRFTISRDNAKNSLYLQMDSLRPEDSALYYCAKAYTFMITLYFDYWGQGTLVTVSS
VL: not shown
notes: human IgG4 Fc with 2 or more amino acid changes (US20100331527); also called H4xH9037P2
B6: H4xH9119P2 (antibody, V domains shown)
VH: EVQLVESGGGLVQPGRSLRLSCAASGFTFEDYAMHWVRQAPGKGLEWVSGIGWSNVKIGYADSVKGRFTISRDNVRNSLYLQMNSLRTEDTAFYYCVKAYTSMLTLYFDYWGQGTLVTVSS
VL: not shown
notes: human IgG4 Fc with 2 or more amino acid changes (US20100331527)
B7: H2aM7780N (antibody, V domains shown)
VH: QVQLVESGGGVVQSGRSLRLSCAASGFTFSSYGMHWVRQAPGKGLEWVAVIWYDGSNIYYSDSVKGRFTISRANSKNTLYLQMNSLRAEDTAVYYCARPGHWNYFFEYWGQGTLVTVSS
VL: DIQMTQSPSSLSASVGDRVTITCRASQSINNYLNWYQQKPGKAPKLLIYTASSLQSGVPSRFSGSGSGTDFTLTISSLQPEDFATYYCQQSYSTPPLTFGQGTQLEIK
notes: human variable regions, mouse IgG2a Fc; also called H2M7780N
B8: H4xH9035P (antibody, V domains shown)
VH: EVQLVESGGRVVRPGGSLRLSCAASGFTFDDYGMSWVRQLPGKGLEWVAGISWNDGKTVYAESVKGRFIISRDNAKNSLHLEMNSLRAEDTALYYCARDWQYLIDRYFDFWGQGTLVTVSS
VL: not shown
notes: human IgG4 Fc with 2 or more amino acid changes (US20100331527); also called H4xH9035P2

How the values were obtained:
[1] = biological target: T2, full length human PD-1 on HEK293/hPD-1 cells (human, UniProt Q15116 25-288); test: FACS dose response, HEK293/hPD-1 cells
[2] = biological target: T3, recombinant human PD-1 dimer expressed with a C-terminal mouse IgG2a Fc tag (human); test: competition ELISA: 1.5 nM hPD-1-mFc to coated hPD-L1-hFc
T3 construct: also called hPD-1-mFc

[3] = biological target: T2, full length human PD-1 on HEK293/hPD-1 …; test: FACS, 100 nM mAb, HEK293/hPD-1 cells;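 further: antibodies incubated with cells for 15-30 min on ice, bound antibody detected through a secondary F(ab′)2 by flow cytometry, with parental HEK293 cells tested in parallel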
[4] = biological target: T3, recombinant human PD-1 dimer expressed …; test: competition ELISA: 1.5 nM hPD-1-mFc to coated hPD-L1-hFc; * below theoretical bottom 7.5E-10 M
[5] = biological target: T3, recombinant human PD-1 dimer expressed …; test: BLI Octet: 100 nM hPD-1-mFc + 500 nM mAb to captured hPD-L1-hFc
[6] = biological target: T4, dimeric biotinylated human PD-1 protein with a C-terminal human Fc tag (human, biotinylated (sites not given)); test: competition ELISA: 200 pM biot-hPD-1-hFc to coated hPD-L1-mFc
T4 construct: also called biot-hPD-1-hFc

[7] = biological target: T2, full length human PD-1 on HEK293/hPD-1 …; test: FACS, 100 nM mAb
[8] = biological target: PD-1 chimera: extracellular domain of human PD-1 with trans-membrane and cytoplasmic domains of human CD300a, … (human, UniProt Q9UGN4 181-299, limits assumed); test: cell-based or functional assay
[9] = biological target: T4, dimeric biotinylated human PD-1 protein …; test: competition ELISA: 200 pM biot-hPD-1-hFc to coated hPD-L1-mFc; * below theoretical bottom 1.0E-10 M
[10] = biological target: T1, monkey PD-1 with mFc; test: SPR, captured mAb, 25 C;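 further: purified anti-PD-1 antibodies tested on Biacore 4000 or T200 instruments, rate constants obtained via 1:1 binding model fit, with KD as kd/ka and half-life as ln2/(60·kd)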
[11] = biological target: T5, recombinant human PD-1 expressed with a C-terminal human IgG1 Fc tag (human); test: SPR Biacore 3000: 100 nM hPD-1.hFc + 500 nM mAb to captured hPD-L1.mFc;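 further: inhibition study with anti-PD-1 mAbs, SPR responses tracked in real time and read at the close of each step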
T5 construct: also called hPD-1-hFc; hPD1-hFc

[12] = biological target: T6, recombinant human PD-L1 expressed with a C-terminal mouse IgG2a Fc tag (human); test: SPR Biacore 3000: 500 nM mAb alone (no hPD-1.hFc) over captured hPD-L1.mFc surface, control
T6 construct: also called hPD-L1-mFc; hPD-L1.mFc

[13] = biological target: T1, monkey PD-1 with mFc; test: SPR, captured mAb, 37 C;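 further: Real-time Biacore surface plasmon resonance biosensor readout of PD-1 reagent binding to purified anti-PD-1 monoclonal antibodies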

| Binder | EC50 [1] | Max Geom. Mean MFI @ 100 nM [1] | % blocking at 200 nM antibody [2] | MFI [3] | IC50 [4] | % Blocking [5] | binding of the mixture (nm) [5] | % blocking at 50 nM antibody [6] | ratio of MFI HEK293/hPD-1 to HEK293 parental cells [7] | Concentration (M) of Antibody at 150% activation [8] | Emax mean [%] @ 100 nM [8] | IC50 [9] | 100 nM Monkey PD-1-mFc Bound (RU) [10] | Kd [10] | koff [10] | kon [10] | t1/2 [10] | % Blocking [11] | binding of the mixture (RU) [11] | 500 nM of anti-PD-1 monoclonal antibody (RU) [12] | further results |
| --- | --- | --- | --- | --- | --- | --- | --- | --- | --- | --- | --- | --- | --- | --- | --- | --- | --- | --- | --- | --- | --- |
| B1 | 0.0332 nM | 24400 MFI | 82% | 6860 MFI | 0.22 nM | 100% | 0 nm | 100% | 26.9 | 2.97e-08 M | 183% | 0.059 nM |  |  |  |  |  |  |  |  |  |
| B2 | 0.048 nM | 20800 MFI | 83% | 6810 MFI | 0.6 nM | 100% | 0 nm | 99% | 24.7 | 1.65e-08 M | 182% | 0.065 nM |  |  |  |  |  |  |  |  |  |
| B3 | 0.209 nM | 32400 MFI | 98% | 10100 MFI | 0.51 nM |  |  | 96% | 69 | 2.62e-09 M | 202% | 0.066 nM | 95 RU | 0.818 nM | 0.000166 s⁻¹ | 203000 M⁻¹ s⁻¹ | 70 min | 105% | -5 RU | -4 RU | 100 nM Monkey PD-1-mFc Bound (RU) [13]: 81 RU; Kd [13]: 2.44 nM; koff [13]: 0.000749 s⁻¹; kon [13]: 307000 M⁻¹ s⁻¹; t1/2 [13]: 15 min |
| B4 | 0.321 nM | 14800 MFI | 74% | 23100 MFI | 0.22 nM | 100% | 0 nm | 100% | 75.7 | 4.72e-09 M | 189% | 0.065 nM |  |  |  |  |  |  |  |  |  |
| B5 | 0.674 nM | 36400 MFI | 100% | 8790 MFI |  |  |  | 95% | 81.4 | 2.82e-09 M | 195% | 0.078 nM | 58 RU | 0.912 nM | 0.000137 s⁻¹ | 150000 M⁻¹ s⁻¹ | 84 min | 104% | -4 RU | -4 RU | IC50 [2]: 0.89 nM; 100 nM Monkey PD-1-mFc Bound (RU) [13]: 24 RU; Kd [13]: 3.21 nM; koff [13]: 0.000897 s⁻¹; kon [13]: 280000 M⁻¹ s⁻¹; t1/2 [13]: 13 min |
| B6 | 0.348 nM | 37800 MFI | 78% | 9140 MFI | 0.2 nM |  |  | 96% | 84 | 1.11e-08 M | 163% | 0.082 nM | 83 RU | 1.05 nM | 0.000172 s⁻¹ | 163000 M⁻¹ s⁻¹ | 67 min | 105% | -5 RU | -5 RU | 100 nM Monkey PD-1-mFc Bound (RU) [13]: 40 RU; Kd [13]: 3.17 nM; koff [13]: 0.000885 s⁻¹; kon [13]: 279000 M⁻¹ s⁻¹; t1/2 [13]: 13 min |
| B7 | 1.69 nM | 18400 MFI | 94% | 23700 MFI | 0.69 nM | 114% | -0.01 nm | 100% | 73.8 | 6.52e-09 M | 228% | 0.091 nM |  |  |  |  |  |  |  |  |  |
| B8 | 0.115 nM | 28700 MFI | 99% | 9920 MFI | 0.62 nM |  |  | 95% | 91.7 | 1.2e-09 M | 227% | 0.08 nM | 78 RU | 0.46 nM | 9.96e-05 s⁻¹ | 216000 M⁻¹ s⁻¹ | 116 min | 104% | -4 RU | -3 RU | 100 nM Monkey PD-1-mFc Bound (RU) [13]: 40 RU; Kd [13]: 1.7 nM; koff [13]: 0.000623 s⁻¹; kon [13]: 367000 M⁻¹ s⁻¹; t1/2 [13]: 19 min |
